We go through 2 molecules from article doi:10.1101/2022.12.13.520362 (bioRxiv, 2022).

Where a chain is given by its changes, count along the chain named. Numbers in names are those of the source.

Experiment [1] concerns the target empty procapsid shells of bacteriophage P22 (WT coat protein) (bacteriophage P22, UniProt P26747 1-430). Nature of the experiment: co-sedimentation.
Experiment [2] concerns the target bacteriophage P22 coat protein monomers (WT) (bacteriophage P22, UniProt P26747 1-430). Nature of the experiment: weak affinity chromatography.

B1: his6-tagged WT scaffolding protein of bacteriophage P22 (gp8) (natural protein, UniProt P26748 1-303, looked up)
chain: MEPTTEIQATEDLTLSGDHAAASADSLVVDNANDNAGQEEGFEIVLKDDETAPKQDPAKNAEFARRRIERKRQRELEQQMEAVKRGELPESLRVNPDLPPQPDINAYLSEEGLAKYDYDNSRALAAFNAANTEWLMKAQDARSNAVAEQGRKTQEFTQQSAQYVEAARKHYDAAEKLNIPDYQEKEDAFMQLVPPAVGADIMRLFPEKSAALMYHLGANPEKARQLLAMDGQSALIELTRLSERLTLKPRGKQISSAPPADQPITGDVSAANKDAIRKQMDAAASKGDVETYRKLKAKLKGIR
Turning to B1, the binding result in experiment [1] and in experiment [2] was “binds” in each case.

B2: his6-tagged L245C scaffolding protein of bacteriophage P22 (natural protein, UniProt P26748 1-303, looked up)
chain: B1 chain with L245C
With B2, in experiment [1], the binding result is reported as “binds”.
